In patent US20200216522A1 (DENALI THERAPEUTICS, published 2020):
Changes are numbered by the printed parent chain.

B1: chimeric IgG clone 1A5 (antibody, V domains shown)
VH: EVQLQQSGAELVRPGASVKLSCTASGFNIKDSLIHWVKQRPEQGLEWIGWIDPEDGETKYAPKFQDKATKTADTSSNTAYLQLSSLTSEDTAIYYCASGEWDYWGQGTSVTVSS
VL: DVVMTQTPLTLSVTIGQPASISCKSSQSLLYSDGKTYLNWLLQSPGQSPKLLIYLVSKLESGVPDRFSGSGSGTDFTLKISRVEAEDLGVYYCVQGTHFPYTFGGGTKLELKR
notes: mouse-human chimeric IgG from HEK293
B2: chimeric IgG clone 1A1 (antibody, V domains shown)
VH: EVQLQQSGAELVRPGASVRLSCTASGFNIKDSLMHWLKQRPEQGLEWIGWIDPEDGETKYAPKFQDKATITADTSSNTAYLQLSSLTSEDTAIYYCTRRDWEGPWGQGTLVTVSA
VL: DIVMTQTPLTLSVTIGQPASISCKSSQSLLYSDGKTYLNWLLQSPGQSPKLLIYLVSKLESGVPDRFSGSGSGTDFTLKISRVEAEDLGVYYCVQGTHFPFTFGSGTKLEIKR
notes: mouse-human chimeric IgG from HEK293; also called anti-Tau 1A1; anti-Tau^1A1
B3: chimeric IgG clone 1G7 (antibody, V domains shown)
VH: B2 VH with L11V, R19K, A24T, E89G, T97A
VL: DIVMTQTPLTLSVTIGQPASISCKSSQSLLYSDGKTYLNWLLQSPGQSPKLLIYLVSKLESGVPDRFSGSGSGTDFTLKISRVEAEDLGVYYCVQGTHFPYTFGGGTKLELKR
notes: as for B1

Target: T1, Peptide_052 (human)
T1 peptide: VKSKIGSTENLKHQP
Test: peptide array
How it was run: (§1)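 Overlapping 15-mer peptides (5-aa offset) spanning human 2N4R Tau spotted in triplicate on slides; antibodies bound 2 h at room temperature in 3% BSA-TBST (chimeric IgG 5 μg/mL; mouse IgG 30 μg/mL). Detection 1 h with fluorescent anti-human (568 nm) or anti-mouse (647 nm) secondary; fluorescence imaging aligned to array map.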

| Binder | binding result |
| --- | --- |
| B1 | binds |
| B2 | binds |
| B3 | binds |

Target: T2, Peptide_014 (human)
T2 peptide: AKSTPTAEDVTAPLV
Test: peptide array
How it was run: as §1

| Binder | binding result |
| --- | --- |
| B1 | no binding (tested: 5 ug/mL) |
| B2 | no binding (tested: 5 ug/mL) |
| B3 | no binding (tested: 5 ug/mL) |

Target: T3, Peptide_053 (human)
T3 peptide: GSTENLKHQPGGGKV
Test: peptide array
How it was run: as §1

| Binder | binding result |
| --- | --- |
| B1 | no binding (tested: 5 ug/mL) |
| B2 | no binding (tested: 5 ug/mL) |
| B3 | no binding (tested: 5 ug/mL) |

Target: T4, Peptide_016 (human)
T4 peptide: TAPLVDEGAPGKQAA
Test: peptide array
How it was run: as §1

| Binder | binding result |
| --- | --- |
| B1 | no binding (tested: 5 ug/mL) |
| B2 | no binding (tested: 5 ug/mL) |
| B3 | no binding (tested: 5 ug/mL) |

Target: T5, Peptide_070 (human)
T5 peptide: FKDRVQSKIGSLDNI
Test: peptide array
How it was run: as §1

| Binder | binding result |
| --- | --- |
| B1 | binds |
| B2 | binds |
| B3 | binds |

Target: T6, Peptide_080 (human)
T6 peptide: SPVVSGDTSPRHLSN
Test: peptide array
How it was run: as §1

| Binder | binding result |
| --- | --- |
| B1 | no binding (tested: 5 ug/mL) |
| B2 | no binding (tested: 5 ug/mL) |
| B3 | no binding (tested: 5 ug/mL) |

Target: T7, Peptide_048 (human)
T7 peptide: PSSAKSRLQTAPVPM
Test: peptide array
How it was run: as §1

| Binder | binding result |
| --- | --- |
| B1 | no binding (tested: 5 ug/mL) |
| B2 | no binding (tested: 5 ug/mL) |
| B3 | no binding (tested: 5 ug/mL) |

Target: T8, Peptide_041 (human)
T8 peptide: GSPGTPGSRSRTPSL
Test: peptide array
How it was run: as §1

| Binder | binding result |
| --- | --- |
| B1 | no binding (tested: 5 ug/mL) |
| B2 | no binding (tested: 5 ug/mL) |
| B3 | no binding (tested: 5 ug/mL) |

Target: T9, Peptide_010 (human)
T9 peptide: SPLQTPTEDGSEEPG
Test: peptide array
How it was run: as §1

| Binder | binding result |
| --- | --- |
| B1 | no binding (tested: 5 ug/mL) |
| B2 | no binding (tested: 5 ug/mL) |
| B3 | no binding (tested: 5 ug/mL) |

Target: T10, Peptide_040 (human)
T10 peptide: GYSSPGSPGTPGSRS
Test: peptide array
How it was run: as §1

| Binder | binding result |
| --- | --- |
| B1 | no binding (tested: 5 ug/mL) |
| B2 | no binding (tested: 5 ug/mL) |
| B3 | no binding (tested: 5 ug/mL) |

Target: T11, Peptide_020 (human)
T11 peptide: EIPEGTTAEEAGIGD
Test: peptide array
How it was run: as §1

| Binder | binding result |
| --- | --- |
| B1 | no binding (tested: 5 ug/mL) |
| B2 | no binding (tested: 5 ug/mL) |
| B3 | no binding (tested: 5 ug/mL) |

Target: T12, Peptide_060 (human)
T12 peptide: NIKHVPGGGSVQIVY
Test: peptide array
How it was run: as §1

| Binder | binding result |
| --- | --- |
| B1 | no binding (tested: 5 ug/mL) |
| B2 | no binding (tested: 5 ug/mL) |
| B3 | no binding (tested: 5 ug/mL) |

Target: T13, Peptide_054 (human)
T13 peptide: LKHQPGGGKVQIINK
Test: peptide array
How it was run: as §1

| Binder | binding result |
| --- | --- |
| B1 | no binding (tested: 5 ug/mL) |
| B2 | no binding (tested: 5 ug/mL) |
| B3 | no binding (tested: 5 ug/mL) |

Target: T14, Peptide_072 (human)
T14 peptide: SLDNITHVPGGGNKK
Test: peptide array
How it was run: as §1

| Binder | binding result |
| --- | --- |
| B1 | no binding (tested: 5 ug/mL) |
| B2 | no binding (tested: 5 ug/mL) |
| B3 | no binding (tested: 5 ug/mL) |

Target: T15, Peptide_057 (human)
T15 peptide: KLDLSNVQSKCGSKD
Test: peptide array
How it was run: as §1

| Binder | binding result |
| --- | --- |
| B1 | no binding (tested: 5 ug/mL) |
| B2 | no binding (tested: 5 ug/mL) |
| B3 | no binding (tested: 5 ug/mL) |

Target: T16, Peptide_067 (human)
T16 peptide: KPGGGQVEVKSEKLD
Test: peptide array
How it was run: as §1

| Binder | binding result |
| --- | --- |
| B1 | no binding (tested: 5 ug/mL) |
| B2 | no binding (tested: 5 ug/mL) |
| B3 | no binding (tested: 5 ug/mL) |

Target: T17, Peptide_058 (human)
T17 peptide: NVQSKCGSKDNIKHV
Test: peptide array
How it was run: as §1

| Binder | binding result |
| --- | --- |
| B1 | no binding (tested: 5 ug/mL) |
| B2 | no binding (tested: 5 ug/mL) |
| B3 | no binding (tested: 5 ug/mL) |

Target: T18, process-control peptide
T18 construct: array control, not a Tau peptide
T18 peptide: GGSGGGSDYKDDDDK
Test: peptide array
How it was run: as §1

| Binder | binding result |
| --- | --- |
| B1 | no binding (tested: 5 ug/mL) |
| B2 | no binding (tested: 5 ug/mL) |
| B3 | no binding (tested: 5 ug/mL) |

Target: T19, Peptide_062 (human)
T19 peptide: VQIVYKPVDLSKVTS
Test: peptide array
How it was run: as §1

| Binder | binding result |
| --- | --- |
| B1 | no binding (tested: 5 ug/mL) |
| B2 | no binding (tested: 5 ug/mL) |
| B3 | no binding (tested: 5 ug/mL) |

Target: T20, Peptide_002 (human)
T20 peptide: QEFEVMEDHAGTYGL
Test: peptide array
How it was run: as §1

| Binder | binding result |
| --- | --- |
| B1 | no binding (tested: 5 ug/mL) |
| B2 | no binding (tested: 5 ug/mL) |
| B3 | no binding (tested: 5 ug/mL) |

Target: T21, Peptide_086 (human)
T21 peptide: ATLADEVSASLAKQG
Test: peptide array
How it was run: as §1

| Binder | binding result |
| --- | --- |
| B1 | no binding (tested: 5 ug/mL) |
| B2 | no binding (tested: 5 ug/mL) |
| B3 | no binding (tested: 5 ug/mL) |

Target: T22, Peptide_008 (human)
T22 peptide: EGDTDAGLKESPLQT
Test: peptide array
How it was run: as §1

| Binder | binding result |
| --- | --- |
| B1 | no binding (tested: 5 ug/mL) |
| B2 | no binding (tested: 5 ug/mL) |
| B3 | no binding (tested: 5 ug/mL) |

Target: T23, Peptide_055 (human)
T23 peptide: GGGKVQIINKKLDLS
Test: peptide array
How it was run: as §1

| Binder | binding result |
| --- | --- |
| B1 | no binding (tested: 5 ug/mL) |
| B2 | no binding (tested: 5 ug/mL) |
| B3 | no binding (tested: 5 ug/mL) |

Target: T24, Peptide_061 (human)
T24 peptide: PGGGSVQIVYKPVDL
Test: peptide array
How it was run: as §1

| Binder | binding result |
| --- | --- |
| B1 | no binding (tested: 5 ug/mL) |
| B2 | no binding (tested: 5 ug/mL) |
| B3 | no binding (tested: 5 ug/mL) |

Target: T25, Peptide_021 (human)
T25 peptide: TTAEEAGIGDTPSLE
Test: peptide array
How it was run: as §1

| Binder | binding result |
| --- | --- |
| B1 | no binding (tested: 5 ug/mL) |
| B2 | no binding (tested: 5 ug/mL) |
| B3 | no binding (tested: 5 ug/mL) |

Target: T26, Peptide_003 (human)
T26 peptide: MEDHAGTYGLGDRKD
Test: peptide array
How it was run: as §1

| Binder | binding result |
| --- | --- |
| B1 | no binding (tested: 5 ug/mL) |
| B2 | no binding (tested: 5 ug/mL) |
| B3 | no binding (tested: 5 ug/mL) |

Target: T27, Peptide_018 (human)
T27 peptide: GKQAAAQPHTEIPEG
Test: peptide array
How it was run: as §1

| Binder | binding result |
| --- | --- |
| B1 | no binding (tested: 5 ug/mL) |
| B2 | no binding (tested: 5 ug/mL) |
| B3 | no binding (tested: 5 ug/mL) |

Target: T28, Peptide_025 (human)
T28 peptide: HVTQARMVSKSKDGT
Test: peptide array
How it was run: as §1

| Binder | binding result |
| --- | --- |
| B1 | no binding (tested: 5 ug/mL) |
| B2 | no binding (tested: 5 ug/mL) |
| B3 | no binding (tested: 5 ug/mL) |

Target: T29, Peptide_036 (human)
T29 peptide: PPAPKTPPSSGEPPK
Test: peptide array
How it was run: as §1

| Binder | binding result |
| --- | --- |
| B1 | no binding (tested: 5 ug/mL) |
| B2 | no binding (tested: 5 ug/mL) |
| B3 | no binding (tested: 5 ug/mL) |

Target: T30, Peptide_037 (human)
T30 peptide: TPPSSGEPPKSGDRS
Test: peptide array
How it was run: as §1

| Binder | binding result |
| --- | --- |
| B1 | no binding (tested: 5 ug/mL) |
| B2 | no binding (tested: 5 ug/mL) |
| B3 | no binding (tested: 5 ug/mL) |

Target: T31, Peptide_087 (human)
T31 peptide: TLADEVSASLAKQGL
Test: peptide array
How it was run: as §1

| Binder | binding result |
| --- | --- |
| B1 | no binding (tested: 5 ug/mL) |
| B2 | no binding (tested: 5 ug/mL) |
| B3 | no binding (tested: 5 ug/mL) |

Target: T32, Peptide_075 (human)
T32 peptide: IETHKLTFRENAKAK
Test: peptide array
How it was run: as §1

| Binder | binding result |
| --- | --- |
| B1 | no binding (tested: 5 ug/mL) |
| B2 | no binding (tested: 5 ug/mL) |
| B3 | no binding (tested: 5 ug/mL) |

Target: T33, Peptide_047 (human)
T33 peptide: TPPKSPSSAKSRLQT
Test: peptide array
How it was run: as §1

| Binder | binding result |
| --- | --- |
| B1 | no binding (tested: 5 ug/mL) |
| B2 | no binding (tested: 5 ug/mL) |
| B3 | no binding (tested: 5 ug/mL) |

Target: T34, Peptide_049 (human)
T34 peptide: SRLQTAPVPMPDLKN
Test: peptide array
How it was run: as §1

| Binder | binding result |
| --- | --- |
| B1 | no binding (tested: 5 ug/mL) |
| B2 | no binding (tested: 5 ug/mL) |
| B3 | no binding (tested: 5 ug/mL) |

Target: T35, Peptide_005 (human)
T35 peptide: GDRKDQGGYTMHQDQ
Test: peptide array
How it was run: as §1

| Binder | binding result |
| --- | --- |
| B1 | no binding (tested: 5 ug/mL) |
| B2 | no binding (tested: 5 ug/mL) |
| B3 | no binding (tested: 5 ug/mL) |
